# Source: patent publication US20210317201A1 (Boehringer Ingelheim, published 2021)
# “And” between values parts separate entries of the source, which are not always exact repeats. Equal entries are not always repeated.
# T1: recombinant human IL-23 (human, UniProt P29460 23-328)
# T1 sequence 1: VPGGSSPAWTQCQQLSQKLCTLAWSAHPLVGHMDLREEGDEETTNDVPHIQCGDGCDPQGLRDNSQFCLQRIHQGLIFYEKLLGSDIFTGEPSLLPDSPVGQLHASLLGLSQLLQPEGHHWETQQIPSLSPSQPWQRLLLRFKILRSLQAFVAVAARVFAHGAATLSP
# T1 sequence 2: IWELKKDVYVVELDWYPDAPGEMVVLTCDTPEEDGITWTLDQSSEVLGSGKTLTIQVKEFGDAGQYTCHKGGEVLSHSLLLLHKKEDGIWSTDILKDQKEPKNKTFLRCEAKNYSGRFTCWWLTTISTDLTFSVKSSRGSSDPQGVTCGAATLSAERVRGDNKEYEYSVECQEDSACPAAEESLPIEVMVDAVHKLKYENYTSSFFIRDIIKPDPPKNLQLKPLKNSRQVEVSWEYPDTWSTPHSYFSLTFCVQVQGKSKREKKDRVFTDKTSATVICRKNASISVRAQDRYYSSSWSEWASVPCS
# T2: human IL-12 (human, UniProt P29459 23-219; P29460 23-328)
# T2 sequence (looked up) 1: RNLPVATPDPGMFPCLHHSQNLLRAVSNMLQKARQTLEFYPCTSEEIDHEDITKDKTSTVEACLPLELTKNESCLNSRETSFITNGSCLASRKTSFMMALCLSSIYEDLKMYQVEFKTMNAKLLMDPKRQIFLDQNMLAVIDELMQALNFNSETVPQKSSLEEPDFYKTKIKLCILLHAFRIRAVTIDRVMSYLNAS
# T2 sequence (looked up) 2: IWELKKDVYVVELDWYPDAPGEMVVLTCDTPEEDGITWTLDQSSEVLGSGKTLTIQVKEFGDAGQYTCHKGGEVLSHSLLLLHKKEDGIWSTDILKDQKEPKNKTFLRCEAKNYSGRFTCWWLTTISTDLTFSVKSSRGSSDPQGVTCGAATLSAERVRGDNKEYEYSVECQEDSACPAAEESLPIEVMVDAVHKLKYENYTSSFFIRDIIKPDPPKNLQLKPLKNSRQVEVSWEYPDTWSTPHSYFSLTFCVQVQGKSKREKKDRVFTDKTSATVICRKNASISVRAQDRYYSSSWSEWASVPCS
# T3: natural human IL-23 from activated THP-1 cells (human, UniProt P29460 23-328)
# T3 sequence 1: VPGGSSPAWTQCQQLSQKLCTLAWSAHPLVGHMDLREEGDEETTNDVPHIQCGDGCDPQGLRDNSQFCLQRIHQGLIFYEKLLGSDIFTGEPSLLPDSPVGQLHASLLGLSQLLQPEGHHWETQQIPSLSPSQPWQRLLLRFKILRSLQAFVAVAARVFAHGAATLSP
# T3 sequence 2: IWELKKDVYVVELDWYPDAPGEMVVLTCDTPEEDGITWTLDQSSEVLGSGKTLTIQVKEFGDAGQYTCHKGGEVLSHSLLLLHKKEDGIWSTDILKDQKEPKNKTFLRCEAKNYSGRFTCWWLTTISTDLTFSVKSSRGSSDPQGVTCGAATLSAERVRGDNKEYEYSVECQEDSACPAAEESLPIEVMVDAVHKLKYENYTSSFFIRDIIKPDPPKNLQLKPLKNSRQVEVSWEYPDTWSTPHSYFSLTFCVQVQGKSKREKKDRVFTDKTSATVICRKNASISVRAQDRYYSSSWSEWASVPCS
# T4: Human IL-23 no linker (human, UniProt P29460 23-328)
# T4 construct: also called recombinant IL-23 without linker
# T4 sequence 1: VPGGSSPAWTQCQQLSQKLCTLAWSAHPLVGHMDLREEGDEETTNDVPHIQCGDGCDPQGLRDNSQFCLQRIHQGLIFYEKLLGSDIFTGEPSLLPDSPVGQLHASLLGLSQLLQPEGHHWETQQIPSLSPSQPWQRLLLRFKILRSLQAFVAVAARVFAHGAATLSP
# T4 sequence 2: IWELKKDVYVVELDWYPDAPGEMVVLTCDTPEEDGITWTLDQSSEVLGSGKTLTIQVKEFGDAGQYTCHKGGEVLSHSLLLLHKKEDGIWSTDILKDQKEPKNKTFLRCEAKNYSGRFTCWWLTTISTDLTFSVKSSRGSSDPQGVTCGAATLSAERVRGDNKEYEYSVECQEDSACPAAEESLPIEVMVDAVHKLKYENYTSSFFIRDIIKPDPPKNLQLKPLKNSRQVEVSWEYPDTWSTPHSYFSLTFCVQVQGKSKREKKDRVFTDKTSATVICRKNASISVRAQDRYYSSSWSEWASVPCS
# Key:
# recombinant human IL-23 [1] = target: T1, recombinant human IL-23; experiment: cell-based or functional assay
# human IL-12 = target: T2, human IL-12; experiment: cell-based or functional assay
# [2] = target: T3, natural human IL-23 from activated …; experiment: cell-based or functional assay
# recombinant human IL-23 [3] = target: T1, recombinant human IL-23; experiment: BLI, Fortebio Octet; hybridoma-derived antibody
# Method: Kinetics and binding affinities were measured using the Fortebio OCTET® (Fortebio, Menlo Park, Calif.) using material generated from hybridoma following single column purification.
# Human IL-23 no linker = target: T4, Human IL-23 no linker; experiment: SPR, ProteOn XPR36, global 1:1 fit
# Method: B) Affinities were measured for humanized antibodies derived from mouse antibody 6B8.
# cynomologous IL-23 = target: T5, cynomologous IL-23 (cynomolgus monkey); experiment: SPR, ProteOn XPR36, global 1:1 fit
# T5 construct: also called cynomolgus IL-23; cynomolgus monkey IL-23
# recombinant human IL-23 [4] = target: T1, recombinant human IL-23; experiment: cell-based or functional assay; remark: listed apart in the source
Binder,"IC50, IL-23 stimulated IL-17 production from mouse splenocytes (recombinant human IL-23 [1])","Average pg/ml IFN-γ +/- Standard Deviation, human PHA-derived T cell blasts with 1 ng/ml IL-12 (no antibody: 532 +/- 51; unstimulated: 87 +/- 7) (human IL-12) [pg/ml IFN-γ]","IC50, IL-23 stimulated IL-17 production from mouse splenocytes [2]",Kd (recombinant human IL-23 [3]) [nM],koff (recombinant human IL-23 [3]) [s⁻¹],kon (recombinant human IL-23 [3]) [M⁻¹ s⁻¹],Kd (Human IL-23 no linker) [nM],koff (Human IL-23 no linker) [s⁻¹],kon (Human IL-23 no linker) [M⁻¹ s⁻¹],Kd (cynomologous IL-23) [nM],"IC50, IL-23 induced STAT3 phosphorylation in human DB cells (phospho-STAT3 ELISA) (recombinant human IL-23 [4])",koff (cynomologous IL-23) [s⁻¹],kon (cynomologous IL-23) [M⁻¹ s⁻¹]
"Chimeric 18E5 (antibody, V domains shown) VH: EVQLQQSGPELVKPGAAVKMSCKASGYTFTRYLIHWVKQKPGQGLEWIGYINPYNDGTKYNEKFKGKATLTSDKSSSTAYMELSSLTSEDSAVYYCTSNWDLDYWGQGTTLTVSS VL: DIVMTQSPATLSVTPGDRVSLSCRASQSISDYLYWYQQKSHESPRLLIKFASQSISGIPSRFTGSGSGSDFTLSIDSVEPDDVGVFFCQNGHSFPFTFGGGTKLEIK",0.031 nM,511,,,,,,,,,,,
"34D9 (antibody, V domains shown, Mouse monoclonal antibody from hybridoma; also called 34D9Vk; 34D9VH7) VH: EVQLQQSGPELVKPGASVKIPCKASGYTFTDYNMDWVKKSHGKSLEWIGDINPHNGGTIYNQKFKGKATLTVDKSSSTAHMELRSLTSEDTAVYYCARNYYGSSYGWYFDVWGTGTTVTVSS VL: DIMMTQSHKFMSTSVGDRVSITCKASQDVGNAVVWYQQKPGQSPKLLIYWASTRHIGVPDRFTGSGSGTDFTLTITNVQSEDLADYFCQQYSSYLTFGAGTKLELK",0.51 nM,,0.456 nM,0.544,1.87e-06,3440,,,,,,,
"antibody C1273 (disclosed in WO 2007/005955) (antibody, V domains shown) VH: DVNLVESGGGLVKPGGSLKLSCAASGFTFSSYTMSWVRQTPEKRLEWVATISSGGTYTYYPDSVKGRFTISRDNAKNTLYLQMSSLKSEDTAMFYCTRDNHAYDRGPFFDYWGQGATLTVSS VL: DIVMSQSPSSLVVSVGEKVTMSCKSSQNLFYRSNQKNHLAWYQQKPGQSPTLLIYWTSTRESGVPDRFTGSGSGTDFTLTISRVKAEDLAVYYCQQYYSYPPTFGGGTKLEIK",,,,,,,0.0158,5.75e-06,360000,,,,
"Chimeric 6B8 (antibody, V domains shown) VH: QVQLQQSDAELVKPGTSVKTSCKISGNTFTDQTIHWMKQRPEQGLEWIGYIYPRDDSPKYNENFKGKATLTADKSSSTAYMQLNSLTSEDSAVYFCAIPDRSGYAWFIYWGQGTLVTVSS VL: DIVMTQSHKFLSTSVGDRVTITCKASRDVAIAVAWYQQKPGQSPKLLLFWASTRHTGVPDRFTGSGSRTDFTLTISNVQSEDLADYFCHQYSSYPFTFGSGTKLEIK",0.026 nM and 0.037 nM and 0.057 nM,523,0.005 nM and 0.002 nM and 0.006 nM and 0.003 nM,,,,,,,,,,
"Mouse antibody 6B8 (antibody, V domains shown, Mouse monoclonal antibody from hybridoma; also called Mouse 6B8; 6B8Vk) VH: QVQLQQSDAELVKPGTSVKTSCKISGNTFTDQTIHWMKQRPEQGLEWIGYIYPRDDSPKYNENFKGKATLTADKSSSTAYMQLNSLTSEDSAVYFCAIPDRSGYAWFIYWGQGTLVTVSS VL: DIVMTQSHKFLSTSVGDRVTITCKASRDVAIAVAWYQQKPGQSPKLLLFWASTRHTGVPDRFTGSGSRTDFTLTISNVQSEDLADYFCHQYSSYPFTFGSGTKLEIK",0.013 nM,,,< 0.001,< 1e-06,,0.0245,1.38e-05,557000,,,,
"34G3 (antibody, V domains shown, Mouse monoclonal antibody from hybridoma; also called 34G3Vk; 34G3VH) VH: EFQLQQSGPELVKPGASVKISCKASGYSFTDYNMNWVKQSKGKSLEWIGVIIPNYGFTSYNQNFKGKATLTVDQSSSTAHMQLNSVTSEDSAVYYCVRDGGILLWYLDVWGTGTTVTVSS VL: DVVMTQTPLSLPVSLGDQASISCRSSQSLVHSNGNTYLHWYLQKPGQSPKLLIYKVSNRFSGVPDRFSGSGSGTDFTLKISRVEAEDLGVYFCSQSTHVPYTFGGGTKLEIN",0.336 nM,,0.027 nM and 0.025 nM,0.0328,3.1e-05,918000,,,,,,,
"Antibody A (antibody, human IgG1, kappa, L234A L235A, V domains shown, Humanized 6B8, human IgG1-KO (L234A/L235A) / kappa; also called 6B8-IgG1KO-2 with IgK-66; 6B8CVH-02 / 6B8CVK-66) VH: QVQLVQSGAEVKKPGSSVKVSCKASGYTFTDQTIHWMRQAPGQGLEWIGYIYPRDDSPKYNENFKGKVTITADKSTSTAYMELSSLRSEDTAVYYCAIPDRSGYAWFIYWGQGTLVTVSS VL: DIQMTQSPSSLSASVGDRVTITCKASRDVAIAVAWYQQKPGKVPKLLIYWASTRHTGVPSRFSGSGSRTDFTLTISSLQPEDVADYFCHQYSSYPFTFGSGTKLEIKR",0.005 nM and 0.015 nM,497,0.001 nM,,,,< 0.001,,,< 0.001,,,
"Antibody C (antibody, human IgG1, kappa, L234A L235A, V domains shown, Humanized 6B8, human IgG1-KO (L234A/L235A) / kappa; also called 6B8-IgG1KO-2 with IgK-65; 6B8CVH-02 / 6B8CVK-65) VH: QVQLVQSGAEVKKPGSSVKVSCKASGYTFTDQTIHWMRQAPGQGLEWIGYIYPRDDSPKYNENFKGKVTITADKSTSTAYMELSSLRSEDTAVYYCAIPDRSGYAWFIYWGQGTLVTVSS VL: DIQMTQSPSSLSASVGDRVTITCKASRDVAIAVAWYQQKPGKVPKLLLFWASTRHTGVPDRFSGSGSGTDFTLTISSLQPEDLADYYCHQYSSYPFTFGQGTKLEIKR",,495,0.016 nM and 0.032 nM,,,,0.0363,1.65e-05,454000,0.0029,0.132 nM and 0.08 nM,9.36e-06,3.23e+06
"Antibody D (antibody, human IgG1, kappa, L234A L235A, V domains shown, Humanized 6B8, human IgG1-KO (L234A/L235A) / kappa; also called 6B8-IgG1KO-5 with IgK-65; 6B8CVH-05 / 6B8CVK-65) VH: QVQLVQSGAEVKKPGSSVKVSCKASGFTFTDQTIHWVRQAPGQGLEWMGYIYPRDDSPKYNENFKGKVTLTADKSTSTAYMELSSLRSEDTAVYYCAIPDRSGYAWFIYWGQGTLVTVSS VL: DIQMTQSPSSLSASVGDRVTITCKASRDVAIAVAWYQQKPGKVPKLLLFWASTRHTGVPDRFSGSGSGTDFTLTISSLQPEDLADYYCHQYSSYPFTFGQGTKLEIKR",0.236 nM and 0.225 nM and 0.614 nM and 0.458 nM,539,0.133 nM and 0.125 nM,,,,0.135,4.93e-05,366000,0.0159,0.158 nM,3.29e-05,2.07e+06
"Antibody B (antibody, human IgG1, kappa, L234A L235A, V domains shown, Humanized 6B8, human IgG1-KO (L234A/L235A) / kappa; also called 6B8-IgG1KO-5 with IgK-66; 6B8CVH-05 / 6B8CVK-66) VH: QVQLVQSGAEVKKPGSSVKVSCKASGFTFTDQTIHWVRQAPGQGLEWMGYIYPRDDSPKYNENFKGKVTLTADKSTSTAYMELSSLRSEDTAVYYCAIPDRSGYAWFIYWGQGTLVTVSS VL: DIQMTQSPSSLSASVGDRVTITCKASRDVAIAVAWYQQKPGKVPKLLIYWASTRHTGVPSRFSGSGSRTDFTLTISSLQPEDVADYFCHQYSSYPFTFGSGTKLEIKR",,537,0.009 nM and 0.008 nM,,,,< 0.001,< 1e-06,517000,< 0.001,0.073 nM and 0.084 nM,< 1e-06,2.99e+06
